The values that follow come from patent publication US20110064726A1.

Test [1] concerns the target cynomolgus monkey IgE (cynomolgus monkey). Nature of the test: capture ELISA, antibody coated; Test 1, Cyno 1 serum.
The target is the same in test [2]. Description: capture ELISA, antibody coated; Test 1, Cyno 2 serum.
The target is the same in test [3]. Nature of the test: capture ELISA, antibody coated; Test 1, Cyno 3 serum. Background: An ELISA detects its analyte on a solid surface through an enzyme-linked reagent.
For test [4] the target is unchanged. Nature of the test: capture ELISA, antibody coated; Test 1, Cyno 5 serum.
For test [5] the target is unchanged. Nature of the test: capture ELISA, antibody coated; Test 1, Cyno 7 serum.
Test [6] has the same target. Description: capture ELISA, antibody coated; Test 2, Cyno 1 serum.
The target is the same in test [7]. Description: capture ELISA, antibody coated; Test 2, Cyno 2 serum.
Test [8] shares this target. Description: capture ELISA, antibody coated; Test 2, Cyno 3 serum.
The target is the same in test [9]. Description: capture ELISA, antibody coated; Test 2, Cyno 5 serum.
For test [10] the target is unchanged. Description: capture ELISA, antibody coated; Test 2, Cyno 7 serum.

With E25 (omalizumab) (antibody), the IgE concentration detected in [1] was 172 ng/mL; in test [2] it was 52 ng/mL; in test [3], 166 ng/mL; in test [4], 232 ng/mL; in test [5] it was 0 ng/mL; in [6], 146 ng/mL. The IgE concentration detected in [7] stood at 104 ng/mL; in test [8] it was 135 ng/mL; in test [9], 252 ng/mL; in [10], 0 ng/mL.
